Measurements: US20220356230A1

Molecular target: SARS-CoV-2 Spike Protein (RBD)(R319-F541).mmH, unmodified (SARS-CoV-2)
Assay: Luminex, supernatant on bead-coupled RBD.mmH
Conditions: remark: other sources report otherwise

B1: mAb11006 (antibody, V domains shown)
VH: EVQLVESGGGLVQPGGSLRLSCAASGFIVSRNYMSWVRQAPGKGLEWVSVIYSGGSTFYADSVKGRFTISRHNSKNTLYLQMNSLKAEDTAVYYCARELRGYFDYWGQGTLVTVSS
VL: DIQLTQSPSFLSASVGDRVTITCWASQGISSYLAWYQQKPGKAPKLLIYAASTLQSGVPSRFSGSGSGTEFTLTISSLQPEDFATYYCQLLNSYPYTFGQGTKLEIK
  Binding signal (MFI): 2040 MFI
